The series deals with the molecule itself. Put plainly: crystal structure; co-crystal of BNP7787-modified Prx 4 from 1.6 M ammonium sulfate, 0.1 M MES pH 6.5, 10% dioxane; 2.3 Å, space group C2; five molecules in the asymmetric unit, decamer generated by crystal symmetry.

The values below come from paper PMC6272748, “Cysteine Specific Targeting of the Functionally Distinct Peroxiredoxin and Glutaredoxin Proteins by the Investigational Disulfide BNP7787” (Molecules, 2015).

B1: human peroxiredoxin 4 (Prx 4) carrying a BNP7787-derived mesna adduct (enzyme, UniProt Q13162 79-271, looked up)
chain: AKISKPAPYWEGTAVIDGEFKELKLTDYRGKYLVFFFYPLDFTFVCPTEIIAFGDRLEEFRSINTEVVACSVDSQFTHLAWINTPRRQGGLGPIRIPLLSDLTHQISKDYGVYLEDSGHTLRGLFIIDDKGILRQITLNDLPVGRSVDETLRLVQAFQYTDKHGEVCPAGWKPGSETIIPDPAGKLKYFDKLN
modifications: BNP7787-derived mesna mixed disulfide on Cys 124 (in all molecules of the decamer); whole protein mass spectrometry consistent with two mesna adducts, the second proposed on Cys 245 (not visible in the electron density)
notes: Peroxiredoxin 4, human, wild type; No density beyond residue 242 in the crystal; TEV cleavage is described only for Grx 1; also called Prx IV; BNP7787-modified Prx 4; source: E. coli BL21(RIPL), purified (Ni2+ IMAC, size exclusion), reduced with DTT, then incubated with 40 mM BNP7787; copies: 10
As for B1, the stoichiometry N (as a rule, the number of molecules, sites or subunits per partner or assembly) was 10.
